Results from patent publication US20220227830A1, “QD DOSING OF GIP RECEPTOR AGONIST PEPTIDE COMPOUNDS AND USES THEREOF” (Takeda Pharmaceutical Company Limited, priority 2020, published 2022).
Starred links: 1 amine or outer side, 2 acyl side, 3 side chain; linkers in the order of their positions; H or OH if unused. Non-standard residues stand in square brackets, D forms with d. Groups on a side chain read outwards from the residue. No end group written: not given here. *: point of attachment. C15 diacid = O=C(O)CCCCCCCCCCCCCC(=O)*; γGlu = O=C(O)[C@H](CCC(=O)[*:2])N[*:1]; NMeY = CN[C@@H](Cc1ccc(O)cc1)C(=O)O; AEEA = NCCOCCOCC(=O)O; Aib = CC(C)(N)C(=O)O

T1: full-length human GIPR with an N-terminal FLAG tag (human, UniProt P48546 22-466)
T1 sequence (looked up): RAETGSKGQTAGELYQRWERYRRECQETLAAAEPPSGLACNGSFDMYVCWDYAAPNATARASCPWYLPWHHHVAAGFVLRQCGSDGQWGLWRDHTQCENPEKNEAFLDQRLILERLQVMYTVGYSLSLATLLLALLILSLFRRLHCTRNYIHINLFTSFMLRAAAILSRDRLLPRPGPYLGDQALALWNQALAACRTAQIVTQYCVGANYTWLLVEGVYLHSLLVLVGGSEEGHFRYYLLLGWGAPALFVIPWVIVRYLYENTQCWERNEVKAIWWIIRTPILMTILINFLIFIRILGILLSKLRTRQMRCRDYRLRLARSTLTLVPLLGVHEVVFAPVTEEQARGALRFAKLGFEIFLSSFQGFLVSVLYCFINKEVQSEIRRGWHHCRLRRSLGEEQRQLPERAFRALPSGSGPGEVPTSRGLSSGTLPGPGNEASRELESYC

B1: Compound 126 (peptide)
peptide: [NMeY][Aib]EGTFISDYSIAK([Gly-Gly-Gly-Gly-Gly-γGlu-C15 diacid])DR[Aib]AQ[Aib]DFVNWLLAQRPSSGAPPPS-NH2
modifications: N-terminus assumed
SMILES: CC[C@H](C)[C@H](NC(=O)[C@H](CO)NC(=O)[C@H](Cc1ccc(O)cc1)NC(=O)[C@H](CC(=O)O)NC(=O)[C@H](CO)NC(=O)[C@@H](NC(=O)[C@H](Cc1ccccc1)NC(=O)[C@@H](NC(=O)CNC(=O)[C@H](CCC(=O)O)NC(=O)C(C)(C)NC(=O)[C@H](Cc1ccc(O)cc1)NC)[C@@H](C)O)[C@@H](C)CC)C(=O)N[C@@H](C)C(=O)N[C@@H](CCCCNC(=O)CNC(=O)CNC(=O)CNC(=O)CNC(=O)CNC(=O)CC[C@H](NC(=O)CCCCCCCCCCCCCC(=O)O)C(=O)O)C(=O)N[C@@H](CC(=O)O)C(=O)N[C@@H](CCCNC(=N)N)C(=O)NC(C)(C)C(=O)N[C@@H](C)C(=O)N[C@@H](CCC(N)=O)C(=O)NC(C)(C)C(=O)N[C@@H](CC(=O)O)C(=O)N[C@@H](Cc1ccccc1)C(=O)N[C@H](C(=O)N[C@@H](CC(N)=O)C(=O)N[C@@H](Cc1c[nH]c2ccccc12)C(=O)N[C@@H](CC(C)C)C(=O)N[C@@H](CC(C)C)C(=O)N[C@@H](C)C(=O)N[C@@H](CCC(N)=O)C(=O)N[C@@H](CCCNC(=N)N)C(=O)N1CCC[C@H]1C(=O)N[C@@H](CO)C(=O)N[C@@H](CO)C(=O)NCC(=O)N[C@@H](C)C(=O)N1CCC[C@H]1C(=O)N1CCC[C@H]1C(=O)N1CCC[C@H]1C(=O)N[C@@H](CO)C(N)=O)C(C)C
B2: Compound 127 (peptide)
peptide: [NMeY][Aib]EGTFISDYSIALDRK([AEEA-AEEA-γGlu-C15 diacid])AQ[Aib]NFVNWLLAQSPSSGAPPPS-NH2
modifications: N-terminus assumed
SMILES: CC[C@H](C)[C@H](NC(=O)[C@H](CO)NC(=O)[C@H](Cc1ccc(O)cc1)NC(=O)[C@H](CC(=O)O)NC(=O)[C@H](CO)NC(=O)[C@@H](NC(=O)[C@H](Cc1ccccc1)NC(=O)[C@@H](NC(=O)CNC(=O)[C@H](CCC(=O)O)NC(=O)C(C)(C)NC(=O)[C@H](Cc1ccc(O)cc1)NC)[C@@H](C)O)[C@@H](C)CC)C(=O)N[C@@H](C)C(=O)N[C@@H](CC(C)C)C(=O)N[C@@H](CC(=O)O)C(=O)N[C@@H](CCCNC(=N)N)C(=O)N[C@@H](CCCCNC(=O)COCCOCCNC(=O)COCCOCCNC(=O)CC[C@H](NC(=O)CCCCCCCCCCCCCC(=O)O)C(=O)O)C(=O)N[C@@H](C)C(=O)N[C@@H](CCC(N)=O)C(=O)NC(C)(C)C(=O)N[C@@H](CC(N)=O)C(=O)N[C@@H](Cc1ccccc1)C(=O)N[C@H](C(=O)N[C@@H](CC(N)=O)C(=O)N[C@@H](Cc1c[nH]c2ccccc12)C(=O)N[C@@H](CC(C)C)C(=O)N[C@@H](CC(C)C)C(=O)N[C@@H](C)C(=O)N[C@@H](CCC(N)=O)C(=O)N[C@@H](CO)C(=O)N1CCC[C@H]1C(=O)N[C@@H](CO)C(=O)N[C@@H](CO)C(=O)NCC(=O)N[C@@H](C)C(=O)N1CCC[C@H]1C(=O)N1CCC[C@H]1C(=O)N1CCC[C@H]1C(=O)N[C@@H](CO)C(N)=O)C(C)C

Columns and labels:
[1] = biological target: T1, full-length human GIPR with an …; experiment: cell-based or functional assay
[2] = biological target: full-length human GLP-1R with an N-terminal FLAG tag (human, UniProt P43220 24-463); experiment: cell-based or functional assay

Row | Binder | Human GIPR cAMP, HEK293T EC50 [1] | Human GLP1R cAMP HEK293T EC50 [2]
1 | B1 | 0.0002 nM | 589 nM
2 | B2 | 0.0005 nM | 66.1 nM
